Assay [1] has as its target T1, Myc-human Hsp90beta (human, UniProt P08238 1-724).
T1 construct: also called myc-Hsp90beta; myc-tagged Hsp90beta; not shown: N-terminal myc tag of pCMV-3Tag2
The assay is described as follows: anti-Flag co-immunoprecipitation from cotransfected HEK293T, western blot anti-myc.

Assay [2] has as its target T1, Myc-human Hsp90beta. The assay is described as follows: anti-Flag co-immunoprecipitation from cotransfected HEK293T, western blot anti-myc (FIG. 2C).

T1 sequence (P08238 whole entry): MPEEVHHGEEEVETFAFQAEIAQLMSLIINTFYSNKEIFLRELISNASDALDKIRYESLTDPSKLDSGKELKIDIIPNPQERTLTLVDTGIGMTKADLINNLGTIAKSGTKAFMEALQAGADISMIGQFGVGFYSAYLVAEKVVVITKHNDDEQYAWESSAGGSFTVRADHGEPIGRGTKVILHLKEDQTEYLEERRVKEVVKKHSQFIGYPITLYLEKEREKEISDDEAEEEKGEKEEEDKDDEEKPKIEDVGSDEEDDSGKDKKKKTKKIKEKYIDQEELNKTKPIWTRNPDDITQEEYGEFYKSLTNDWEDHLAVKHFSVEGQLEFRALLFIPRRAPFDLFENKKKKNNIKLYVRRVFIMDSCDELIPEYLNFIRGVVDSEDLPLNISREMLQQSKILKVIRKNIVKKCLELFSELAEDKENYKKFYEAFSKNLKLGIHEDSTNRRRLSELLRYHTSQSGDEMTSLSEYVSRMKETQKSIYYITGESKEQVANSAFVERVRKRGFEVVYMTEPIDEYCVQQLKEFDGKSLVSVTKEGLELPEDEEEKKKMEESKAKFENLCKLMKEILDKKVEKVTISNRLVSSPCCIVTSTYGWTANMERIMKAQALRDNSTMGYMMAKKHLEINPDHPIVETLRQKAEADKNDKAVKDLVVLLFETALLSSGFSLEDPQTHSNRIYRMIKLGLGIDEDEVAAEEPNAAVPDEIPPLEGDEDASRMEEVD

B1: Flag-tagged APOBEC2 (enzyme, UniProt Q9Y235 1-224, looked up)
chain: MAQKEEAAVATEAASQNGEDLENLDDPEKLKELIELPPFEIVTGERLPANFFKFQFRNVEYSSGRNKTFLCYVVEAQGKGGQVQASRGYLEDEHAAAHAEEAFFNTILPAFDPALRYNVTWYVSSSPCAACADRIIKTLSKTKNLRLLILVGRLFMWEEPEIQAALKKLKEAGCKLRIMKPQDFEYVWQNFVEQEEGESKAFQPWEDIQENFLYYEEKLADILK
notes: also called A2; not shown: N-terminal Flag tag (annealed oligonucleotides AO1 and AO2)
Regarding B1, in assay [1], the binding result is on record as “no binding”.

B2: Flag-tagged rat APOBEC1 (enzyme, UniProt P38483 1-229, looked up)
chain: MSSETGPVAVDPTLRRRIEPHEFEVFFDPRELRKETCLLYEINWGGRHSIWRHTSQNTNKHVEVNFIEKFTTERYFCPNTRCSITWFLSWSPCGECSRAITEFLSRYPHVTLFIYIARLYHHADPRNRQGLRDLISSGVTIQIMTEQESGYCWRNFVNYSPSNEAHWPRYPHLWVRLYVLELYCIILGLPPCLNILRRKQPQLTFFTIALQSCHYQRLPPHILWATGLK
notes: also called A1; not shown: N-terminal Flag tag (annealed oligonucleotides AO1 and AO2)
B2: in assay [1], the binding result is given as “no binding”.

B3: AID-APOBEC2 chimera #1 (enzyme)
chain: MDSLLMNRRKFLYQFKNVEYSSGRNKTFLCYVVEAQGKGGQVQASRGYLEDEHAAELLFLRYISDWDLDPGRCYRVTWFTSWSPCYDCARHVADFLRGNPNLSLRIFTARLYFCEDRKAEPEGLRRLHRAGVQIAIMTFKDYFYCWNTFVENHERTFKAWEGLHENSVRLSRQLRRILLPLYEVDDLRDAFRTLGL
notes: range 60-96; Flag-tagged in the HEK293T co-immunoprecipitation; also called AID-A2 #1; not shown: its end of the chain and its l
On to B3, for which the binding result in assay [2] is listed as “no binding”.

Source of the values: US20110237560A1 (published 2011).
